Results reported in publication PMC8538552.

Biological target: protein A from Staphylococcus aureus (Staphylococcus aureus) (UniProt P38507)
Assay: fluorescence intensity of the solution left after immobilization (plate reader); solutions used for functionalization with FITC antibody analysed after the immobilization process on substrate with and without protein A; VICTOR3 plate reader; calibration curve to quantify the antibody that remained in solution

Substance: CD4 (VIT4)-FITC mouse anti-human antibody (Miltenyi Biotec)
- percent of the starting antibody solution immobilised: < 60%
